Fewer inactive variants are shown than the library holds.
B1: TPR 5TU (parent)
chain: GGAUCUUCUCGAUCUAACAAAAAAGACAAAUCUGCCACAAAGCUUGAGAGCAUCUUCGGAUGCAGAGGCGGCAGCCUUCGGUGGCGCGAUAGCGCCAACGUUCUCAACUAUGACACGCAAAACGCGUGCUCCGUUGAAUGGAGUUUAUCAUG

Variants of: B1
Test: polymerase ribozyme fitness, log enrichment relative to wild type (log ratio); higher = more active; in vitro selection for triplet polymerase activity
Procedure, shortened: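 Genotype fitness is the logarithm of its enrichment divided by wild-type enrichment, using inverse-variance-weighted averages of replicates. That logarithm is base 2. Enrichment was measured by Illumina sequencing of input and output libraries from one triplicate in vitro selection round, with frozen incubation at −7 °C, on PCR-built, transcribed mutant libraries of each subunit of a heterodimeric triplet polymerase ribozyme, retaining genotypes with ≥10 input reads and ≥1 read per output.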

Variant	polymerase ribozyme fitness (log ratio)
G88A C93A C123U G126U G133U G140U	≤ -4.2
C85G U101G G128U	-4.03
C85G G133C	-2.86
G83U G126A U148A	≤ -4.2
G88C G126C	≤ -4.2
C87U A120U C123G	-1.06
G84U C96A	-2.84
C85G A106C G141U G143U U151A	≤ -4.2
C85U U134C	-1.76
G84A U139G	-0.68
G83U A98U C105U	-0.156
G84U C96U A122G C149G	≤ -4.2
C87U G124A	-0.0826
C85G C125A	-2.37
G83U G140U G152U	-3.93
C85U G136C	-3.29
G88A G92A C132G U148A	≤ -4.2
G84A A121C U127G	-2.56
C85G C118U C132U	-3.11
G84U U127G	-3.43
G88U C95G U144C	≤ -4.2

Variant	polymerase ribozyme fitness (log ratio)
G84A U127C	-1.91
G88A C96A C103U	≤ -4.2
G83U C95G G124U U148C	≤ -4.2
G83U C95G	-1.54
G83U C95U	-1.53
C85G C114G G141U	-4.17
C87U C103G C116U	-1.35
C87G A113C A138U U146C	≤ -4.2
C87G A97U G117C	≤ -4.2
G84C A97G	-1.95
C85U G94A A121C A138U	-4.08
G86A A121U	-0.51
G83U C87U A89C G141A A142G	≤ -4.2
G83U A120U G141C	-0.804
C85A C87U U101G G136U	≤ -4.2
G84U U135A	-2.85
G86A C114A	-4.1
G86A C114U	-2.15
C87U C99G	-1.97
C85U U127C A137U	≤ -4.2
G84A A97U U146C	-0.418

Variant	polymerase ribozyme fitness (log ratio)
C85U C95G	-2.03
C85U U145C	-0.732
C85G G100A	≤ -4.2
G88A C95A C123A	≤ -4.2
C87U U104G	-0.825
G84U C95G A122U G152C	-3.55
G86U G92C A98G A150U	-2.26
G88U C95G	-3.65
G84U G117U	-1.61
G84U C116A	-0.432
C85G A122G C149A	≤ -4.2
G86A U90C U102C A137G	≤ -4.2
C87U A89G C103U A115C C123U G143U	≤ -4.2
C85A C125G	-1.13
C85U A120G G124U G143C	-3.46
C85U A98U U139A	≤ -4.2
G84U A120U	-2.07
C85U C96G U135C	-2.57
C85A C96U A119C	-0.783
C85U C95G A119U	-1.89
G84A G133C	-1.78

Variant	polymerase ribozyme fitness (log ratio)
G86C C87G C108G	≤ -4.2
C87G C93U C99A U134G G141U	≤ -4.2
G88U U127C	-4.15
C87A C93G C108G	≤ -4.2
C85U C103G	-3.48
G84U C95U G143C	-3.33
C85G C114G	-3.8
A89C G117U	-0.705
C85A A119U A122U G141A	0.358
C85A U102G A121G A122C	≤ -4.2
C87A A89U	≤ -4.2
G83U G133C	-2.09
C85U G94U A97U	-0.116
G88U A115C A120G	-3.89
C85U U127G	-3.46
C85G A122U	-1.53
C85U C131U G143U	-2.54
C87U U102C A147C	-2.24
C85G C96U A113U	-3.8
G88C G117C A138U G143C	≤ -4.2
C87G U144G	≤ -4.2

Reference: the RNAGym collection of RNA variant scans (doi:10.1073/pnas.2313332121)
